Test results: article PMC10249625 (Biochemistry, 2023)
One block for each binder: values may come before it.

What was measured:
[1] = molecular target: hBIMEL (141–166) BH3 peptide (human); assay: native MS
[2] = molecular target: hBIMEL (141–166) BH3 peptide (human); assay: HDX-MS

binding result [1]: binds
B1: Bcl-2 chimera (1–34 Bcl-2, 35–50 Bcl-XL, 93–207 Bcl-2) with a C-terminal 6His tag (domain or fragment)
chain: MAHAGRTGYDNREIVMKYIHYKLSQRGYEWDAGDDVEENRTEAPEGTESEPVVHLTLRQAGDDFSRRYRRDFAEMSSQLHLTPFTARGRFATVVEELFRDGVNWGRIVAFFEFGGVMCVESVNREMSPLVDNIALWMTEYLNRHLHTWIQDNGGWDAFVELYGPSMR

binding result [2]: binds
B2: Mcl-1 (172–327), untagged after thrombin cleavage of GST (domain or fragment, human (from the printed UniProt entry))
chain: GSGSDELYRQSLEIISRYLREQATGAKDTKPMGRSGATSRKALETLRRVGDGVQRNHETAFQGMLRKLDIKNEDDVKSLSRVMIHVFSDGVTNWGRIVTLISFGAFVAKHLKTINQESCIEPLAESITDVLVRTKRDWLVKQRGWDGFVEFFHVEDLEGG
